# Square brackets hold non-standard residues; d marks the D form. Peptide text beside a SMILES is read from it. * marks the point of attachment. DOTA = O=C(O)CN1CCN(CC(=O)O)CCN(CC(=O)*)CCN(CC(=O)O)CC1
# Assays:
# Jurkat xenografts = assay: in vivo; settings: female, athymic nude-Foxn1^nu/Foxn1^+, mouse, iv, 200 pmol, 1 h
# Protocol: (§1) Quantification of the total body distribution of ^177Lu-7 and ^68Ga-7 was performed in Jurkat xenografted mice after intravenous injection of 100 μL, 200 pmol, with […], respectively (n = 5). The mice were sacrificed at 1 h p.i. ^177Lu-7 and ^68Ga-7 accumulated mainly in the kidneys (83.1 ± 25.5 and 75.6 ± 30.3%IA/g, respectively, p = 0.59), liver (5.19 ± 1.08 and 4.08 ± 1.05%IA/g, respectively, p = 0.07) and tumor (2.25 ± 0.43 and 2.24 ± 0.57%IA/g, respectively, p = 0.97), as already seen in the SPECT/CT and PET/CT images (Figures 6 and 7). Uptake in the tumor was lower than for the kidneys and liver but higher as in all other tissues investigated. […] The uptake seen in the liver might be attributed, at least partially, to the fact that CXCR4 is constitutively expressed in the sinusoidal endothelial cells of the murine liver[38] or could be related to another yet-unknown mechanism previously reported for other CXCR4-targeting probes.[11],[39] Regretfully, there are no direct measurements available for the affinity of ^177Lu-7 with the murine CXCR4 (mCXCR4). This is relevant for assessing its total body distribution. However, we have shown that EPI-X4 and EPI-X4 derivatives are active in mouse models of inflammatory diseases[22],[25] and cancer.[40] More specifically, EPI-X4 derivatives such as JM#21 reduced immune cell influx in lungs of mice suffering from allergic asthma or reduced skin inflammation in a murine model of atopic dermatitis upon topical administration. […] Thus, we speculate that the DOTA conjugate of JM#173 (ligand-7) also cross-reacts to the mCXCR4. […] Last, but not the least, the uptake in the kidneys was predominant, and given the highly hydrophilic character of ^177Lu-7, is attributed, at least partially, to its excretion via this path.
# (§2) The experimental protocol involving animals was approved by the Veterinary Office (Department of Health) of the Cantonal Basel-Stadt (Approval No. 30515) in accordance with the Swiss regulations for animal treatment. Female athymic nude-Foxn1^nu/Foxn1^+ mice (Envigo, The Netherlands), 4–6 weeks old, were injected subcutaneously with 10^7 Jurkat cells in a 200 μL (1:1) mixture of PBS and Matrigel (CorningMatrigelMembrane matrix, Fischer Scientific, Germany) on the right shoulder. The tumors were allowed to grow for 3–4 weeks before commencement of the experiments.
# (§3) Quantitative biodistribution studies of ^177Lu-7 (100 μL, 200 pmol, 0.8–1 MBq) and ^68Ga-7 (100 μL, 200 pmol, 2–3 MBq) were performed after intravenous injection of the radioligand via the tail vein on Jurkat xenografts. […] 1 h after injection of the radioligand, mice were sacrificed, organs of interest and blood were collected, rinsed of excess blood, blotted dry, weighed, and counted in a γ-counter. The samples were counted against a suitable diluted aliquot of the injected solution as the standard and the results are expressed as percentage injected activity per gram of tissue (%IA/g). Statistical analysis between selected organs was performed by Welch’s t-test and p values <0.05 were considered statistically significant.
# in vivo = settings: female, athymic nude-Foxn1^nu/Foxn1^+, mouse, iv, 200 pmol, total radioactivity
# Protocol: as §1, §2, §3
# [1] = type: in vitro ADME, human; settings: human, plasma
# Protocol: Representative radiochromatograms are provided in Figure S25 for ^177Lu-1, ^177Lu-2, and ^177Lu-7. This included ^177Lu-9 despite its fatty acid chain.
# Figure 3 Stability of the ^177Lu ligands in human plasma at 37 °C, expressed as % of intact radioligand over time, assessed by radio-HPLC. The % of plasma protein binding (PPB) after 60 min incubation is provided in parenthesis and it is expressed as the % of radioligand in the protein fraction (pellet) versus the total activity in the plasma. TEXT PRINTED IN THE PICTURE: ^177Lu-1: PPB: 35% | ^177Lu-2: PPB: 22% | ^177Lu-5: PPB: 42% | ^177Lu-6: PPB: 38% | ^177Lu-7: PPB: 39% | ^177Lu-9: PPB: 37%
# To 1 mL of fresh human plasma, previously equilibrated at 37 °C, 500 pmol (8–10 MBq) of each ^177Lu-labeled ligand was added. The mixture was incubated at 37 °C for different time points (0, 15, 30, 60, and 120 min). At each time point, a 100 μL aliquot was removed and treated with 1.5 excess (v/v) of acetonitrile, to precipitate plasma proteins, followed by centrifugation for 5 min at 3500 rpm. The supernatant was collected and the process of protein precipitation was repeated. Afterward, 100 μL from the supernatant was taken, diluted with water at a ratio of 1:10 (v/v), and injected into radio-HPLC. The radioligand (in)stability was assessed by quantifying the percentage of intact radioligand over time.
smiles,measurement,setting,value
"CC[C@@H](C)[C@@H](N)C(=O)N[C@@H](CC(C)C)C(=O)N[C@@H](CCCNC(=N)N)C(=O)N[C@@H](Cc1c[nH]c2ccccc12)C(=O)N[C@@H](CO)C(=O)N[C@@H](CCCNC(=N)N)C(=O)N[C@@H](CCCCN)C(=O)N[C@@H](CCCCNC(=O)CN1CCN(CC(=O)O)CCN(CC(=O)O)CCN(CC(=O)O)CC1)C(N)=O [^177Lu-7, metal not drawn] (H-[dI]LRWSRKK(DOTA)-NH2; N-terminus assumed)",uptake in adrenal,Jurkat xenografts,1.09 ± 0.42 % IA/g
same,tissue uptake at 1 h,in vivo; uptake in blood,0.42 ± 0.12 %ID/g
same,tissue uptake at 1 h,in vivo; uptake in femur,1.06 ± 0.28 %ID/g
same,tissue uptake at 1 h,in vivo; uptake in heart,0.21 ± 0.05 %ID/g
same,tissue uptake at 1 h,in vivo; uptake in intestine,0.37 ± 0.1 %ID/g
same,tissue uptake at 1 h,in vivo; uptake in kidney,83.1 ± 25.5 %ID/g
same,tissue uptake at 1 h,in vivo; uptake in liver,5.19 ± 1.08 %ID/g
same,tissue uptake at 1 h,in vivo; uptake in muscle,0.27 ± 0.14 %ID/g
same,tissue uptake at 1 h,in vivo; uptake in pancreas,0.14 ± 0.02 %ID/g
same,tissue uptake at 1 h,in vivo; uptake in spleen,0.81 ± 0.16 %ID/g
same,tissue uptake at 1 h,in vivo; uptake in stomach,0.3 ± 0.06 %ID/g
same,tissue uptake at 1 h,in vivo; uptake in tumor,2.25 ± 0.43 %ID/g
same,metabolic stability in plasma (in words),[1],high metabolic stability in plasma up to 4 h

# From paper PMC10350915, “Development of a New Class of CXCR4-Targeting Radioligands Based on the Endogenous Antagonist EPI-X4 for Oncological Applications” (Journal of Medicinal Chemistry, 2023)
